B1: Belimumab (antibody, V domains shown)
VH: QVQLQQSGAEVKKPGSSVRVSCKASGGTFNNNAINWVRQAPGQGLEWMGGIIPMFGTAKYSQNFQGRVAITADESTGTASMELSSLRSEDTAVYYCARSRDLLLFPHHALSPWGRGTMVTVSS
VL: SSELTQDPAVSVALGQTVRVTCQGDSLRSYYASWYQQKPGQAPVLVIYGKNNRPSGIPDRFSGSSSGNTASLTITGAQAEDEADYYCSSRDSSGNHWVFGGGTELTVLG
B2: NMB01 (antibody, V domains shown)
VH: EVQLVESGGGLVQPGGSLRLSCAASGFTFSTFGMNWVRQAPGKGLEWVSYISSGSSTIYYADTVKGRFTISRDNAKNSLYLQMNSLRAEDTAVYYCARLGDPLLRPKGNAMDYWGQGTLVTVSS
VL: DIQMTQSPSSLSASVGDRVTITCLASQTIGTWLAWYQQKPGKAPKLLIYAATRKADGVPSRFSGSGSGTDFTLTISSLQPEDFATYYCQQLYSSPWTFGGGTKVEIK

Assays:
Blys [1] = molecular target: T1, Blys (human, UniProt Q9Y275 134-285, limits assumed); test: SPR, Biacore T200, antibody captured by goat anti-human IgG on a CM5 chip, 300 nM BLYS as analyte
T1 construct: Unlabelled Blys as used as the analyte in Biacore (300 nM) and in the mouse splenocyte proliferation assay (3 ng/ml); also called BAFF; B淋巴细胞刺激因子

Blys [2] = molecular target: T1, Blys; test: cell-based or functional assay
Blys-His融合蛋白(含6×His标签) = molecular target: T2, Blys-His融合蛋白(含6×His标签) (human, UniProt Q9Y275 134-285); test: ELISA, Blys-His coated, 1:4 serial dilutions of antibody, mouse anti-human IgG-HRP
T2 construct: Expressed in CHO-K1 cells and purified on a Ni column; The background says that Blys acts as a homotrimer and that residues 133-285 are the main functional region; also called 重组人BLYS; not shown: 6×His tag

Row | Binder | Kd (Blys [1]) | 抑制Blys刺激的鼠脾细胞增殖 IC50 (Blys [2]) | EC50 (Blys-His融合蛋白(含6×His标签))
1 | B1 | 1.37 nM | 8.25 ng/mL | 
2 | B2 |  |  | 0.0292 nM

— patent CN105061596A (JIANGSU NOVOMAB BIOPHARMACEUTICAL INC, dated 2015)
